assay: soluble on expression in E. coli; label from the status in PepcDB or PDB records

Soluble on expression in E. coli, soluble:
MRNQELARIFEEIGLMSEFLGDNPFRVRAYHQAARTLYDLDTPIEEIAEKGKEALMELPGVGPDLAEKILEFLRTGKVRKHEELSRKVPRGVLEVMEVPGVGPKTARLLYEGLGIDSLEKLKAALDRGDLTRLKGFGPKRAERIREGLALAQAAGKRRPLGAVLSLARSLLEAIRALPGVERAELCGSARRYKDTVGDLDFLVASREGERAVEGFVRLPQVKEVYAKGKERATVFLKNGLQVDLRVVPPESYGAGLQYLTGSKAHSIRLRALAQEKGLKLSEYGVFRGEKRIAGETEEEVYAALGLPWIPPPLREDQGEVEAALEGRLPKLLELPQVKGDLQVHSTYSDGQNTLEELWEAAKTMGYRYLAVTDHSPAVRVAGGPSPEEALKRVGEIRRFNETHGPPYLLAGAEVDIHPDGTLDYPDWVLRELDLVLVSVHSRFNLPKADQTKRLLKALENPFVHVLAHPTARLLGRRAPIEADWEAVFQKAKEKGVAVEIDGYYDRMDLPDDLARMAYGMGLWISLSTDAHQTDHLRFMELAVGTAQRAWIGPERVLNTLDYEDLLSWLKARRGV
MENMIVIMAGGRSSRMGAEKPILKVNGKPMILRVYEESTKVGETLVAISKNTPKTRELCIKEGIPLIETPGEGYVEDVRYLLKELGSFVSVSADLPFVKACDIAEVKKAFDGKTSLTGVLPLSKVPTDLRPVVYKGYVIVGLNGVGFEGEKFYELSNPLLALNVNTPEELKLANRIAKLIG
MGDDLPDWRNKLEPVFLEFEDGCVPEEHYYPCIRRREDEEPKISAEEEYYLMVKEVEDSKGFDIDFAKFRCVFNYRPVDLDDNELALEPETTREFMDRLCRKSLEHFNEIHSTKYEFVRFIKANHHVSAGMMYFITFEGKLLSNDDDSKQFQAKLCYCGGTPEIISCELKP
GSPGISGGGGGIPSGRGELLVSLCYQSTTNTLTVVVLKARHLPKSDVSGLSDPYVKVNLYHAKKRISKKKTHVKKCTPNAVFNELFVFDIPCESLEEISVEFLVLDSERGSRNEVIGRLVLGATAEGSGGGHWKEICDFPRRQIAKWHMLCDG
GKIILFEDVEFGGKKLELETSVSDLNVHGFNDIVSSIIVESGTWFVFDDEGFSGPSYKLTPGKYPNPGSWGGNDDELSSVKQQ
MKIATYNVRVDTEYDQDWQWSFRKEAVCQLINFHDWSLCCIQEVRPNQVRDLKAYTTFTCLSAEREGDGQGEGLAILYNEQKVQAIDTGYFWLSETPQQPSIHPEAGCPRIALWGLFKETTQNTPFLVINVHLDHISAHARLAGMTVILEELHDKIAQYPTLLMGDFNAESGEEVHQLVQKKFQDSKNLATHYGPRGTFQNFTYTKPWAELEEIDYIYVKGWQVQQTASLTDSIDGRFPSDHFPLEAEVAGENLYFQ
MSLGIYMRDDILDIITLTTDFGTNEGYVGAMKGRILNILKKYNKDAKIIDISHEIKPFNIYHGAYVLLTAIPYFPPSVHVAVIDPTVGSERKSIVIETKSGYYLVGPDNGLFTYVAEKLGIKRIIKIDEERYKPSSTFHGRDVYAVVGAEILINNGYDGEELDEMVKIDETKKRVIHIDRFGNIITNIKKDEVTFKYYDTIMIKIRHKNGIEKIIKCKFVKSYFEEKNNFICLINSEGFLEISKFMDNASKLLNVDYLDEIEIEGGSHHHHHH
MVGGGGVKFIEMDIRDKEAYELAKEWFDEVVVSIKFNEEVDKEKLREARKEYGKVAILLSNPKPSLVRDTVQKFKSYLIYVESNDLRVIRYSIEKGVDAIISPWVNRKDPGIDHVLAKLMVKKNVALGFSLRPLLYSNPYERANLLRFMMKAWKLVEKYKVRRFLTSSAQEKWDVRYPRDLISLGVVIGMEIPQAKASISMYPEIILKRLKY
MADKSSRSLILYGDGLARFVDPSNTNIHSLASVATCGFLSLPNAPPETENERIVREFSHLLDASEAYSIASGLKPKGNGNDISTLAERFMGLKAALVTDSSTLTSFGKLIGLDVLQLSEICQESDSFPSDATSSKLLKLLGFEGGKCLDVNLYDLVFVHFGVDEYNNGNNMGILDSLIGSIMGMAQPGSEILSRLHLSVVLSYGSVTDKDVSVFPIKTPQEDINPAFIGLVPRQSYTMRGEKTRDDVRHYCPMLVAQWQHGVTRKDLVDTLSFEALKKLCGNLVIPADRFIHEVAFKLWKAPKYGA

Soluble on expression in E. coli, not soluble:
MSICTRKFINKLGFPNFGGESVQIAISGGKGWNWKIYSRHKSCSKMGVKRTLADLDVEAPNDHLLLGVSLANEEPVYQFMPHFDYLKCIKRRKCAKVCEEHAIVTLKDGTPFLMPTLCSGCRACEIVCPVPGAIREMAGDPLEHHHHHH
MGNELIVSVQNRIQEMQHGEGLRLPTGYSVGNALNSAYLILSDNSKGKSLLEKCHPTSVSKALLNMAIQGLSPAKNQCYFVPYGDQCTLMRSYFGSVSILERLSNVKKVHAEVIFEGDEFEIGSEDGRTVVTNFKPSFLNRDNPIIGAFAWVEQTDGIKVYTIMTKKEIYKSWSKAKTKNVQNDYPQEMAKRTVLSRAAKMFINSSSDNDLLVKAINETTEDEYDNNQPRKDITPNPPNIEKLEKSIFNQDENKKIAQDMIDSIDLNQADKDLQEELNIEFPDPSKNYLATGEVNGDVENEDGPYPF
MPAVESNMFPLGKQAPPFALTNVIDGNVVRLEDVKSDVATVIMFICNHCPFVKHVQHELVRLANDYMPKGVSFVAINSNDAEQYPEDSPENMKKVAKELGYPFPYLYDETQEVAKAYDAACTPDFYIFDRELKCVYRGQLDDSRPNNGIPVTGESIRAALDALLEGRPVPEKQKPSIGCSIKWKPSA
SGGLLIASAHFGAYVCGTDIDYNTVHGLGKASRKNQKWRGPDENIRANLRQYGLEKFYLDVLVSDASKPSWRKGTYFDAIITDPPYGIRESTRRSGSQKDIPKGIEKCPESHVPVSLSYHLSDMFFDLLNFAAETLVLGGRLVYWLPVYTPEYTEEMVPWHPCLRLISNCEQKLSSHTARRLITMEKVKEFENRDKYSHLLSDHFLPYQGHNSFREKYFSGVTKRIAKEEKCSHE
MSVHESSNEINDEPMDTDSNIPESSGNDPSMEVDDEPESSDAADSFKRFERLLQKTENFSHCLSSGDAKLATGAPVDTKKRGRPSKKNGIDGDHRHRKTEQEEDEEMVADAIKSDDLVIFDKSPFYIENGEMRDYQVRGLNWLASLQHNKINGILADEMGLGKTLQTISMIGYMKHYKNKASPHLVIVPKSTLQNWANEFKKWCPSINAVVLIGDEAARNQVLRDVILPQKFDVCCTTYEMMLKVKTQLKKLNWRYIIIDEAHRIKNEKSKLSETVRELNSENRLLITGTPLQNNLHELWALLNFLLPDIFTSSDDFDSWFSNDAMSGNTDLVQRLHKVLQPFLLRRIKSDVEKSLLPKKEVKVYVGLSKMQREWYTKVLMKDIDIINGAGKVEKARLMNILMHLRKCVNHPYLFDGAEPGPPFTTDQHLVDNSGKMVVLDKLLMKFKEQGSRVLIFSQFSRMLDLLEDFCWWRHYEYCRLDGSTPHEDRSNAIEAYNAPDSKKFIFMLTTRAGGLGINLATADVVIIYDSDWNPQSDLQAMDRAHRIGQKKQVRVFRLITENTVDERIIEKAEAKLRLDNIVIQQGRMSEAQKTLGKGDMISMIRHGAEQVFAAKDSTISDDDIDTILEKAEVKTAELNEKMGKIDENNLRNMTFEDNAKFTVYQFEGENYKAKQADGMGHFWIEPPKRERKANYQVDLYYKEAMRAGNPTEKQSKAPRPKLPQVFDFQFYPRRLFELLDKEIYHYRKTIGYVAERPKDVPPKEAEKRQAEEQKLINNARPLTDKEQEEKAELLTQSVTDWTKREFQQFVRGNEKYGREDLESIAKEMERPLEEIQSYAKVFWERIEELQDSEKVLSQIEKGEARIQRKYAVKKALDAKIAKYKAPFQQLRISYGTNKGKTYTEEEDRFLVCETHRLGHDKENVFEELRQSVRMAPQFRFDWFLKSRTAMELQRRCNTLITLIEREMGEVVESKPVIVTAADKKKSVAKDLSKSSGTPTAKKVKATPK
MGSDKIHHHHHHMQDKNFDKLAQKFAKNIYGTPKGEIRAAVLWRDLAPALAQFGDKKLRILDAGGGFGYFSQKLARLGHEVVLCDISAEMLAQAKEQIDASDTPLAIRLVHAPIQALSITEHGMFDLILCHAVVEWLADAKTTMEGLLTMLKPNGLFSLMFYNKEAMRFHALVSGNFDYVAADLKVKKKVRLTPTHPLYIHEVKLWFAQWQMALLKESGVRVIHDYLKKQQAADFDYQKLLSMELEYSQREPYISLGRYVHFLGQSTATHSE
MLFFSSAMSKHKLTFTKLSDCMKYLDLAATWAEEEWGYIRNKGLEFRKKILSDLKEHTYIGTFNGQPIAMFVLFDKEMSPEFNHGRFKPPVVNELMYVYIDKPYRGLGFGKQIIDEAKQLASDSKSEYIMLDTLKPGLNRFYEKSGAKVIAENQLFSHPTDVLTIKI
MTSSPARNGDISFWYADIGGVPQPRPPLAGDARADVCIVGAGYTGLWTALYLKEQAPELEVLVLEKEFAGFGASGRNGGWLTGSFAWTHDRYLSTGTAEGVRAMVTAMSGTVDEVIRVAEAEGIDADIHRTDELMVAVTPAQRARAEAEVRHRQSWGEERVSFLEADAVARRIRIPKAEGAMVVGGVARVQPAKLVRGLAEAAERRGVRIAEGTEVLGIAPGRVETRRGTVQAPIILRATEGFTATLPGAKRDWLPLNSAQIVTEPLPPEIWDRIGWEGAEILGDMANAYCYCQRTREGRIAVGARGRAYRMASRIDERGEADAVTVAHLLKRLQRHFPAAADARIDHSWCGVLGVPRDWCATVGLDPTTGIGWAGGYVGVGVSTSNLAGRTLADLALKRDTALTRLPWVNRRVRRWEPEPLRWLGVRGMYRLLEAADRREEAGGPPSWLAALGHRIAGRLEHHHHHH
LSQEETELELLRQFDLAWQYGPCTGITRLQRWHRAEQMGLKPPVEVYQVLKTHPEDSRFQCSLWHLYPL
MEAVHCFRCYKFPSKQIEFYLTNCMHMFCIECERLCHPPEEEPLKCIQCSKTPIRIVKMGPELPMTIKSMFTPISEEINQYTRDLTRVLTFQHRQRASLSTFLERKVAAFDRLRDAYSEEKTKKEHYKKQLEEAYHLLKSKEHEISKLKKQLAEQAPPPQTPPRSNSLKVASSRSLETPSMMRVFSDSMYETPVQIQRRFTKAQAKAEAEAEAPAKSPGSKAQTTKCTSNYQSHPPASFETPIHHPPKTSMGFTTPANPPHMFPYLKKHEAQREKHKEHRNSQ
MEGFGMPKLIISGRGGSGKSTLVTLIAHTLKEQKKRVLVVDSDESNIGLSGILGIEPAEKTLMDYLGGKPRVMKKLRSMIRDGETEPELFREKFDLESLSQEFVCWVGSLGLMQIGKIDHAMEGCACPMGAVTRDFLNHVRLEEDQWVLVDTEAGVEHFGRGIVEGADAVVMVVDPSSDAVLLAEKAAKLTHEADKRFGVILNKIDEETEPILTELLTSEGNEIKGVLPYSPAITKMNLKGESLGAYAVKNEVDEIIRELMKCLEHHHHHH
AHHHHHHGSYILQKNKGVIRVKDIAKMMRVKPPTVVEALKKLRDKGFVKYEEHEHILLTEKGLEVAKKTYSKHQLLTEFFINILGIPPEIAERDACQFEHYVSEVTVHRIREFISYIQQECPYALKQFLKKVREKDQAVAK

Source: the DeepSol protein solubility set
